The target in this assay is mISCU/mNFS1/mISD11 complex (mouse) (UniProt Q9D7P6). The experiment in a line: native MS; ESI native mass spectrometry of the quaternary complexes after gel filtration, 50 mM ammonium acetate; masses of the GST-mFXN and the mFXN-HIS complex compared.

From PMC3027643 come the findings set out here.

Chain of UniProt Q9D7P6 (Q9D7P6 36-168, chain 1 of 3): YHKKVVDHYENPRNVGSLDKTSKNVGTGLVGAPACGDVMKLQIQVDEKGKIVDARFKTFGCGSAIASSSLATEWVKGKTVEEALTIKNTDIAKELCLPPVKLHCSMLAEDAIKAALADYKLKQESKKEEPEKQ
Chain of UniProt Q9D7P6 (Q9Z1J3 18-459, chain 2 of 3, further chain): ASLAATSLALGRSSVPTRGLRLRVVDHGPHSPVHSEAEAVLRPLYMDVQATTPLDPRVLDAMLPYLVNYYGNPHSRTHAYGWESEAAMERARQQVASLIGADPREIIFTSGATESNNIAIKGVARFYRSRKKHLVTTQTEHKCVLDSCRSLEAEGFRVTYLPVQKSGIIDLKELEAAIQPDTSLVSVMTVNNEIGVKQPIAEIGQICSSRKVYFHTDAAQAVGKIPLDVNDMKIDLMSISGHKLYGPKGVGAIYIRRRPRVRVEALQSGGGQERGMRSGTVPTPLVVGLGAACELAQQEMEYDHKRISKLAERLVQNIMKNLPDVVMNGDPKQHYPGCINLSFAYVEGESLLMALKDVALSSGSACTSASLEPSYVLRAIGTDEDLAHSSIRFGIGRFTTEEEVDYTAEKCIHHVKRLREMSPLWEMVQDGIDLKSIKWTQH
Chain of UniProt Q9D7P6 (Q8K215 whole entry, chain 3 of 3, further chain): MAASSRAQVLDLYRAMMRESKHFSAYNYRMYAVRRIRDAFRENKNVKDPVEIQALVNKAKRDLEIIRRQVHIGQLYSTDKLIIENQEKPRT

As for mFXN-HIS (natural protein), the stoichiometry N was found to be 2.
